Literature values as cited in paper PMC1617126.
pKd: −log10 of the molar value.

Target: protective antigen (PA) (Bacillus anthracis) (UniProt P13423)

For ANTXR2 I domain (from UniProt P58335), the pKd is given as 6.02.
